# B1: Speckle-type POZ protein (Homo sapiens), O43791 (parent)
# chain: MSRVPSPPPPAEMSSGPVAESWCYTQIKVVKFSYMWTINNFSFCREEMGEVIKSSTFSSGANDKLKWCLRVNPKGLDEESKDYLSLYLLLVSCPKSEVRAKFKFSILNAKGEETKAMESQRAYRFVQGKDWGFKKFIRRDFLLDEANGLLPDDKLTLFCEVSVVQDSVNISGQNTMNMVKVPECRLADELGGLWENSRFTDCCLCVAGQEFQAHKAILAARSPVFSAMFEHEMEESKKNRVEINDVEPEVFKEMMCFIYTGKAPNLDKMADDLLAAADKYALERLKVMCEDALCSNLSVENAAEILILADLHSADQLKTQAVDFINYHASDVLETSGWKSMVVSHPHLVAEAYRSLASAQCPFLGPPRKRLKQS
# partner: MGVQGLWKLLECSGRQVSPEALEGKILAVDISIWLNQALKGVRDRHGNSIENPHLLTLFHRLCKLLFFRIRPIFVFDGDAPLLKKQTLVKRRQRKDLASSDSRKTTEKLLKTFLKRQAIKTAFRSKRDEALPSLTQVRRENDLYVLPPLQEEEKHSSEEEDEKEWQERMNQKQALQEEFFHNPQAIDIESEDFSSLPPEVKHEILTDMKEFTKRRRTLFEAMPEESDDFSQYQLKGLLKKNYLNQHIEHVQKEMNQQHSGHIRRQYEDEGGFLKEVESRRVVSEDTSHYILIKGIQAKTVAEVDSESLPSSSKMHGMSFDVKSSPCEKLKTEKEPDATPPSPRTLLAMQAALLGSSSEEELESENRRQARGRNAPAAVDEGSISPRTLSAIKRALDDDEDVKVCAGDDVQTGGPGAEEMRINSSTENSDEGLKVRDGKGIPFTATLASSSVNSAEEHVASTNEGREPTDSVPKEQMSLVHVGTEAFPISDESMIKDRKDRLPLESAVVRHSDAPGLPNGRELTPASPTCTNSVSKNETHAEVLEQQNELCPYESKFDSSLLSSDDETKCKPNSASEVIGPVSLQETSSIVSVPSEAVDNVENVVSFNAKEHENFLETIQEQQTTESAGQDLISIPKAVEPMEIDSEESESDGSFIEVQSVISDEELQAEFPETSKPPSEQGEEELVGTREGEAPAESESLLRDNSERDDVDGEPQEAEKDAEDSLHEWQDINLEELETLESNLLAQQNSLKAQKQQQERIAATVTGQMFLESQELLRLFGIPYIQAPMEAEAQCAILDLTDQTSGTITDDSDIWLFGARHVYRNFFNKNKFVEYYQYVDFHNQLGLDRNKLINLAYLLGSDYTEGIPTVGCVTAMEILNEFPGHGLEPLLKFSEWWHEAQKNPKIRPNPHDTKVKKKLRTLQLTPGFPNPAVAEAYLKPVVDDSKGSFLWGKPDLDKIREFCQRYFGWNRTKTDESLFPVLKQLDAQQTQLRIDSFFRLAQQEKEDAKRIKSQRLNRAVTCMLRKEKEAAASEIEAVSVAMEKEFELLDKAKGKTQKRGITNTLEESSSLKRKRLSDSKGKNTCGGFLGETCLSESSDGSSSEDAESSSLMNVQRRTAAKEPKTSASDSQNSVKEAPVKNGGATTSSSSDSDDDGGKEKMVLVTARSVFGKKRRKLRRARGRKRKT
# B2: Speckle-type POZ protein (Homo sapiens), O43791 (parent)
# chain: B1 chain
# partner: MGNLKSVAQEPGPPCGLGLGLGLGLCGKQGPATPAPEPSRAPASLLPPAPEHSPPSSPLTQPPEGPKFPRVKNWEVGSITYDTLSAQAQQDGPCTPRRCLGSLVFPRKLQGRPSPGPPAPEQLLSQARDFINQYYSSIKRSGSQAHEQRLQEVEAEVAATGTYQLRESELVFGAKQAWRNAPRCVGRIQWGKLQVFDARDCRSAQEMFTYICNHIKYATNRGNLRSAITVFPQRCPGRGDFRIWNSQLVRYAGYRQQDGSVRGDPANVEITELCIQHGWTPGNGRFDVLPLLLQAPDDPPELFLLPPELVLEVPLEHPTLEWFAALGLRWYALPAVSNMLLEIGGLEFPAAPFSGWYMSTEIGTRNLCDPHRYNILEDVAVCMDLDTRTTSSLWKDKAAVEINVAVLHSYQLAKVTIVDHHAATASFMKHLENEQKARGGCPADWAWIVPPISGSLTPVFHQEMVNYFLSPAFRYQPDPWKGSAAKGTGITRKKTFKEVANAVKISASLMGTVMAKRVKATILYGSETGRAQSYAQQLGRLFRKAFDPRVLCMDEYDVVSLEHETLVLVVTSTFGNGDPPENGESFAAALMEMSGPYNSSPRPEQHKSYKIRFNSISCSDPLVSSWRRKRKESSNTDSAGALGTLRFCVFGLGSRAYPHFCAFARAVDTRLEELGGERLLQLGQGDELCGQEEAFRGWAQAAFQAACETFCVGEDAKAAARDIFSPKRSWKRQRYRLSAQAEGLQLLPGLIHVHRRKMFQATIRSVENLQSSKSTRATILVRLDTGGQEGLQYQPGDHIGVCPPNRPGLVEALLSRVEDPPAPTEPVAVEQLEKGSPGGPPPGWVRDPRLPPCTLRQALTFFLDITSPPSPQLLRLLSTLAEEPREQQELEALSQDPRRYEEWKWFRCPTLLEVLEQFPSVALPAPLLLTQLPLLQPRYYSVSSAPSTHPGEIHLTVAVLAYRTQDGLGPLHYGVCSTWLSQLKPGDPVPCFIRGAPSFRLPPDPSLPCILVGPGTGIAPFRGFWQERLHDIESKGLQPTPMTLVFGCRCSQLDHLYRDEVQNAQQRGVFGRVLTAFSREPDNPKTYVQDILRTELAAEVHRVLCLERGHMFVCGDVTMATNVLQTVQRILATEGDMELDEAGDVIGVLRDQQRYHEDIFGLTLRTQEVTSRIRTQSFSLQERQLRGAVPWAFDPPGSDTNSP
# B3: Speckle-type POZ protein (Homo sapiens), O43791 (parent)
# chain: B1 chain
# partner: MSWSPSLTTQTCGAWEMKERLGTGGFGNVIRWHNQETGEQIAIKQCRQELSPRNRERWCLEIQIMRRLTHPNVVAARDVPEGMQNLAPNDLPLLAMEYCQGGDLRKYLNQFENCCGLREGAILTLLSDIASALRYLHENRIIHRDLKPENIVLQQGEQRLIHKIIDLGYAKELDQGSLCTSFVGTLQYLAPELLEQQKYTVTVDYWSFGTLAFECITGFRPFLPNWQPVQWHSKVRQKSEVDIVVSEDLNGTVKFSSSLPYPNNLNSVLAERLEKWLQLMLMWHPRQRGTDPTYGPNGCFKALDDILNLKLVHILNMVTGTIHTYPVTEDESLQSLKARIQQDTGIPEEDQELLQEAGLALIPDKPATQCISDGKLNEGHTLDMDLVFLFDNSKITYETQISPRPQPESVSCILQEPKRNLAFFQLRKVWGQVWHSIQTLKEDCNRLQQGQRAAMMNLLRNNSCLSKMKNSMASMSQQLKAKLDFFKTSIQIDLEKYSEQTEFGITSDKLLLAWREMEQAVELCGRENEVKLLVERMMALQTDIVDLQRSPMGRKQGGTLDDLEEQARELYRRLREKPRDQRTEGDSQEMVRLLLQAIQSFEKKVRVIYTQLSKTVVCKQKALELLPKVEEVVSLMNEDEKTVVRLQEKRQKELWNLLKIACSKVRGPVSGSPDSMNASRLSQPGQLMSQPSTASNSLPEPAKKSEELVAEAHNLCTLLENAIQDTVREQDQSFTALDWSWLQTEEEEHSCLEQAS
# B4: Speckle-type POZ protein (Homo sapiens), O43791 (parent)
# chain: B1 chain
# partner: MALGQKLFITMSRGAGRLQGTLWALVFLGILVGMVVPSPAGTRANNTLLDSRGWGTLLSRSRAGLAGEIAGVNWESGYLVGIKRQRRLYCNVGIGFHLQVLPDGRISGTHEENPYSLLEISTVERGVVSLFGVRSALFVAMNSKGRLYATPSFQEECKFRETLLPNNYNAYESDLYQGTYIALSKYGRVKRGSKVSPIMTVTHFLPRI
# Variants of: B1
# Details: with ercc5_human ERCC5, P28715
row,effect of a mutation on the interaction,Variant
1,with no effect,F102C

# Variants of: B1
# Details: with ercc5_human ERCC5, P28715
# Remark: another data set of the same source
row,effect of a mutation on the interaction,Variant
1,with no effect,F133L

# Variants of: B1
# Details: with ercc5_human ERCC5, P28715
# Remark: another data set of the same source
row,effect of a mutation on the interaction,Variant
1,with no effect,F133V

# Variants of: B1
# Details: with ercc5_human ERCC5, P28715
# Remark: another data set of the same source
row,effect of a mutation on the interaction,Variant
1,with no effect,Y87C

# Variants of: B2
# Details: with nos3_human NOS3, P29474
row,effect of a mutation on the interaction,Variant
1,with no effect,F102C

# Variants of: B3
# Details: with ikkb_human IKBKB
row,effect of a mutation on the interaction,Variant
1,with no effect,Y87C

# Variants of: B3
# Details: with ikkb_human IKBKB
# Remark: another data set of the same source
row,effect of a mutation on the interaction,Variant
1,with no effect,F133V

# Variants of: B3
# Details: with ikkb_human IKBKB
# Remark: another data set of the same source
row,effect of a mutation on the interaction,Variant
1,with no effect,F133L

# Variants of: B3
# Details: with ikkb_human IKBKB
# Remark: another data set of the same source
row,effect of a mutation on the interaction,Variant
1,with no effect,F102C

# Variants of: B4
# Details: with fgf6_human FGF6, P10767
row,effect of a mutation on the interaction,Variant
1,with no effect,F102C

# Variants of: B4
# Details: with fgf6_human FGF6, P10767
# Remark: another data set of the same source
row,effect of a mutation on the interaction,Variant
1,with no effect,Y87C

# Variants of: B4
# Details: with fgf6_human FGF6, P10767
# Remark: another data set of the same source
row,effect of a mutation on the interaction,Variant
1,with no effect,F133L

# From IntAct's records for PubMed 35512704
